Ends that are not written are not given here.
Target: T1, Human Rhinovirus serotype 1A 3C Protease (Human rhinovirus 1A, UniProt P23008)
T1 construct: is used to clone the 3C Protease into the expression vector pET16-b; made in house; host or cells: E. coli BL21-DE3-pLys-S
T1 sequence (P23008 1515-1697 limits assumed): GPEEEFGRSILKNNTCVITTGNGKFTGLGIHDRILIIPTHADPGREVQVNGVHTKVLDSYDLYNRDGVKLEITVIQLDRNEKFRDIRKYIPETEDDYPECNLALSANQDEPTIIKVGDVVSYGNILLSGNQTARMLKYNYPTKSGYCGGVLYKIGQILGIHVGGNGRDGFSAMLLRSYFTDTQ
Assay type: biochemical
Settings: not given

Substance	Km
MOC-Arg-Ala-Glu-Leu-Gln-Gly-Pro-Tyr-Asp-Lys-DNP-NH2 (RAELQGPYDK; not fully specified; MOC fluorochrome, DNP quencher, C-terminal amide; Human rhinovirus 1A; MOC; fluorochrome) [dimodified decapeptide substrate (7-methoxy coumarin-4-acetic acid fluorochrome and dinitrophenol quencher)]	16.8 µM

Target: T2, Rhinovirus HRV14 3C protease (Human rhinovirus 14, UniProt P03303)
T2 construct: the human rhinovirus 14 3C proteinase, cloned and expressed in E. coli; host or cells: E. coli
Settings: cited from earlier work

T2 sequence (P03303 1538-1719): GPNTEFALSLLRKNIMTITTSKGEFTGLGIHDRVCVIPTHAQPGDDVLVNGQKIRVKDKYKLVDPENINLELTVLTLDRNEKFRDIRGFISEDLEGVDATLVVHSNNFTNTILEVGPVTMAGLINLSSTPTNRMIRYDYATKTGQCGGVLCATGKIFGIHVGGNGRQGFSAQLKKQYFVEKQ

Substance	Hydrolysis rate	Relative Hydrolysis rate
VPYIERQANDGWFRK [III]	0	0.0005
KQYFVEKQGQVIAR [VIII]	1	0.003
EAIAEEQGLSDYIT [II]	8	0.024
SQTVALTEGLGDELEEY	0	0.0005
DSLETLFQGPVYK [I]	355	1.00
KLFAQTQGPYSGNP [VI]	147	0.44
YRPVVVQGPNTEF [VII]	37	0.11

Target: T2, Rhinovirus HRV14 3C protease
Assay type: biochemical
Settings: not given

Substance	best substrate chosen based on the reaction rates
RPVVVQGPN	best peptide
